How the values were obtained:
[1] = target: T1, IscU_(I108M)-(his)6, E. coli IscU with the Ile108Met substitution (E. coli, UniProt P0ACD4 1-128, I108M); assay: co-elution on anion exchange chromatography (QFF); purified His-tagged proteins mixed anaerobically 1:1:1 (144 uM each) for 40 min with 4-fold excess Fe(SO4)2(NH4)2, 10-fold excess L-cysteine, 5 mM DTT in 50 mM Tris-HCl pH 8; loaded on a 1-mL QFF column, eluted with a gradient to 1 M NaCl; fractions analysed by SDS-PAGE; the single proteins elute at lower salt; details: both partners purified
T1 construct: IscU, Fe-S cluster scaffold protein of E. coli K-12 MG1655; coding region amplified from pIscUIM and cloned NdeI/HindIII into pET21a+; the methods say the proteins were mixed with Fe(SO4)2(NH4)2, L-cysteine and DTT; By gel filtration it exists mainly as a dimer; also called IscUIM; His-tagged IscUIM; not shown: His6, C-terminal, kept

[2] = target: T2, (his)6-IscS, E. coli cysteine desulfurase IscS (E. coli, UniProt P0A6B7 1-404); assay: as above; details: both partners purified
T2 construct: IscS, cysteine desulfurase of E. coli; not shown: His6, N-terminal, kept

B1: CyaY-(his)6, E. coli frataxin homolog CyaY (natural protein, UniProt P27838 1-106, looked up)
chain: MNDSEFHRLADQLWLTIEERLDDWDGDSDIDCEINGGVLTITFENGSKIIINRQEPLHQVWLATKQGGYHFDLKGDEWICDRSGETFWDLLEQAATQQAGETVSFR
notes: CyaY, frataxin homolog of E. coli; not shown: His6, C-terminal, kept
[1]
  binding result: binds
[2]
  binding result: binds
